Measured values published in patent US20180282373.

Biological target: purified recombinant full-length WDR5 (UniProt P61964)

Substance: GST-tagged MLL2 Win-SET domain, MLL2(5319-5537), Win motif arginine to alanine mutant
- core complex H3K4 dimethylation activity, mutant against wild type: a 2-fold increase in this activity with the MLL2 Win motif variant

Substance: GST-tagged MLL4 Win-SET domain, MLL4(2490-2715), Win motif arginine to alanine mutant
- core complex methyltransferase activity, H3K4me1 peptide, mutant against wild type: showed similar amounts of activity compared to that of their wild-type counterparts

Substance: GST-tagged SETd1A Win-SET domain, Setd1A(1474-1708), Win motif arginine to alanine mutant
- core complex methyltransferase activity, H3K4me1 and H3K4me2 peptides, mutant against wild type: at least a 2-fold reduction in activity compared to their wild-type counterparts
